In PMC7284817:

Key:
[1] = molecular target: CXC-motif chemokine ligand 12 (CXCL12), membrane-anchored ligand fusion (Cub-GAL4); experiment: two-hybrid; MALAR-Y2H; β-galactosidase (ONPG) assay of diploid cells, lysate incubated 30 min at 30°C, OD405, Miller Units, mean of two clones
[2] = molecular target: S. mansoni neuropeptide NPP2a, membrane-anchored ligand fusion (linker-WBP1 TMP-Cub-GAL4) (S. mansoni); experiment: as above

Sequence of mouse receptor CXCR4, NubG fusion (positive control) (P70658 whole entry, the tested form may be a part): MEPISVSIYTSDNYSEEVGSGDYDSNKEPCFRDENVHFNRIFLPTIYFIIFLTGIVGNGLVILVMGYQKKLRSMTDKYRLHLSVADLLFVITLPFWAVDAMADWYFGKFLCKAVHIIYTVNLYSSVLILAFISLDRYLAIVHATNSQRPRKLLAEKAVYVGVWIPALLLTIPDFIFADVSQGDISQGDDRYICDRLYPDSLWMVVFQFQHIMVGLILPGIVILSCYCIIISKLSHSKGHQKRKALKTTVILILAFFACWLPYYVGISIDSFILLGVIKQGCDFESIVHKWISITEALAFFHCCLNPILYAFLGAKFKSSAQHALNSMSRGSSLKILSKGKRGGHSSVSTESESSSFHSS

| Miller units (β-Gal activity) [1] [Miller units] | Substance | Miller units (β-Gal activity) [2] [Miller units] |
| --- | --- | --- |
| 3.07 | mouse receptor CXCR4, NubG fusion (positive control) | – |
| – | Schistosoma mansoni G protein-coupled receptor GPCR14 (Smp_203500), fused to NubG | 2.68 |
